Publication doi:10.1101/2023.06.15.545071 (2023)

Key:
Test in all cases: MST
[1] = biological target: T1, full-length ETR1, purified and fluorescently labelled (Arabidopsis, UniProt P49333 1-738, fluorescent label (dye and site not stated))
T1 chain: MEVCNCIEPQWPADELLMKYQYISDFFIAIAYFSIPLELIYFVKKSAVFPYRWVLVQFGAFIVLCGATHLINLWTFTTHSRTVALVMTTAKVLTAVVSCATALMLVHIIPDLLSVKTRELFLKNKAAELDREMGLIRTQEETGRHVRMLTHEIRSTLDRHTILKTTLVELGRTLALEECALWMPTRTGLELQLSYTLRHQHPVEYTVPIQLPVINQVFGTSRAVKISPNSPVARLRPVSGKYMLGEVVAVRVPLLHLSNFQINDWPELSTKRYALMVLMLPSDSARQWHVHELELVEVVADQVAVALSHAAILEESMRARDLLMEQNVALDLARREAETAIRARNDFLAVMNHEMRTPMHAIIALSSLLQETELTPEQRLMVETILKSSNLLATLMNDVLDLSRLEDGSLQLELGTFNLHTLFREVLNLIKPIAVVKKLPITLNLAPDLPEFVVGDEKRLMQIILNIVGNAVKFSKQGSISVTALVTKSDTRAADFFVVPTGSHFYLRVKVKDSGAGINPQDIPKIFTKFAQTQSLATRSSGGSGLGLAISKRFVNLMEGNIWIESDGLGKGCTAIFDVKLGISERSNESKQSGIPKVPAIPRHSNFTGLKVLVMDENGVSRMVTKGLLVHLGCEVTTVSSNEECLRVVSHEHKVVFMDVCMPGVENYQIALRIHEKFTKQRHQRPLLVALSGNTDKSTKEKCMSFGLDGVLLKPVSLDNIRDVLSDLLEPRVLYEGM

[2] = biological target: ETR1 1-598
[3] = biological target: ETR1 1-157
[4] = biological target: ETR1 1-407
[5] = biological target: ETR1 1-307

With MKPRLCFNFRRRSISPCYISISYLLVAKLFKLFKIH [synthetic full length PLS peptide PLS(FL)] the Kd [1] was 1900 nM, the Kd [2] was 2920 nM and the Kd [3] was 1520 nM. The Kd [4] was 1650 nM and the Kd [5] was 1780 nM.
